Assay results reported in US20230227520A1 (MAX PLANCK GESELLSCHAFT ZUR F RDERUNG DER WISSENSCHAFTEN E V, published 2023).
Numbering of substitutions follows the chain as printed. Read-outs that look alike come from different tables or passages of the source.

Columns and labels:
[1] = target: T1, G-CSFR on NFS-60 cells (murine myeloblastic cell line) (mouse, UniProt P40223 26-837); experiment: cell-based or functional assay
T1 sequence (looked up): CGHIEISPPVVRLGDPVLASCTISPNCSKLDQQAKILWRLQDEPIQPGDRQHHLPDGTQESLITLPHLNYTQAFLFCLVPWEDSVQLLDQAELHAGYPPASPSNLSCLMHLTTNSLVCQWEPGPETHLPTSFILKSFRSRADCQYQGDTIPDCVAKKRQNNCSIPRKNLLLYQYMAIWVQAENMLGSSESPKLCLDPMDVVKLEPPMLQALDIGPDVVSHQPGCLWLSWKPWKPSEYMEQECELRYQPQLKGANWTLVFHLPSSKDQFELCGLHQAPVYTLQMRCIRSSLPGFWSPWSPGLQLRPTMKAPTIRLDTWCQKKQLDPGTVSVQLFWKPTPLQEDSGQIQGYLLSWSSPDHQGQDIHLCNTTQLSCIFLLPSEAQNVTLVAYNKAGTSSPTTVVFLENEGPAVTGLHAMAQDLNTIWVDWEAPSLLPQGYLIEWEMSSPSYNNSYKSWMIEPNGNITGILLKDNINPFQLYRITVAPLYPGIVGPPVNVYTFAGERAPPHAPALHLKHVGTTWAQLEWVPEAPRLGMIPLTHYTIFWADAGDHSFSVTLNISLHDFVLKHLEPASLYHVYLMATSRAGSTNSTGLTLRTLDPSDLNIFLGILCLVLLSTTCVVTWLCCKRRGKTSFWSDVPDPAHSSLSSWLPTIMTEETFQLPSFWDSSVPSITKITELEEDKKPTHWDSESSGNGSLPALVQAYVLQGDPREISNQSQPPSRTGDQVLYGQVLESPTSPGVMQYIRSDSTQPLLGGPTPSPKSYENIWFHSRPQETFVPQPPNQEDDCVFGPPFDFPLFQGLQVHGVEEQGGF

[2] = target: T1, G-CSFR on NFS-60 cells (murine …); experiment: cell-based or functional assay; remark: listed apart in the source
[3] = target: T2, G-CSF Receptor (G-CSFR) (R&D systems 381-GR-050/CF), recombinant human (human, UniProt Q99062 25-627, limits assumed); experiment: SPR (Biacore), G-CSFR immobilised on the chip, Moevan 2 nM - 32 nM as analyte, five traces with binding model fit [panel D]
T2 construct: Bought protein, amine-coupled to a CM5 chip; also called rhG-CSFR; human G-CSF receptor
T2 sequence (looked up): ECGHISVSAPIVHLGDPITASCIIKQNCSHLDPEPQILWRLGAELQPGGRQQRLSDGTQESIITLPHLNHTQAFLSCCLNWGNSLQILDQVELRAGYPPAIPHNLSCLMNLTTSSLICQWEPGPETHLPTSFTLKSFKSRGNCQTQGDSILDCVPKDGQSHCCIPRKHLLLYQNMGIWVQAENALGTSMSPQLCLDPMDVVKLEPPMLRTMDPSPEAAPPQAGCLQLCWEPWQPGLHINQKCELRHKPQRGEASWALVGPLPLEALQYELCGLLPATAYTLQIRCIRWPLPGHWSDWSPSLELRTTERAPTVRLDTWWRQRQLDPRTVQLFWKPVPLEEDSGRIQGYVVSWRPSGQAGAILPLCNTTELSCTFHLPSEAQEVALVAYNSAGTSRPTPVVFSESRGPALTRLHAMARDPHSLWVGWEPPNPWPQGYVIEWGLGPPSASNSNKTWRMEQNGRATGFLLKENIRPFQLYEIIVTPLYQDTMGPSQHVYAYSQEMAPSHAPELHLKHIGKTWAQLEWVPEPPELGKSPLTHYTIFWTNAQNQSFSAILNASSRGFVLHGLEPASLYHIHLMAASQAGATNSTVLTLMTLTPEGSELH

[4] = target: T2, G-CSF Receptor (G-CSFR) (R&D systems …); experiment: SPR, Biacore X100 single-cycle kinetics, G-CSFR amine-coupled on CM5, 1:1 binding model
Description: To test whether the grafted epitope residues mediate binding of the designs to the G-CSF receptor, the inventors also performed SPR measurements for the Moevan and diSohair2 initial design templates (Moevan_control and diSohair_control, respectively), and no binding was observed (FIG. 20C,F).
Single-cycle kinetics experiments were performed on a Biacore X100 system (GE Healthcare Life Sciences). G-CSF Receptor (G-CSFR) (R&D systems 381-GR-050/CF) was diluted to 50 μg/ml in 10 mM acetate buffer pH 5.0 and immobilized on the surface of a CM5 sensor chip (GE Healthcare 29149604) using standard amine coupling chemistry. The designs and rhG-CSF (USP RS Filgrastim, Sigma-Aldrich 1270435) were diluted in running buffer (10 mM HEPES, 150 mM NaCl, 3.4 mM EDTA, 0.005% v/v Tween-20). Analyses were conducted at 25° C. at a flow rate of 30 μl/min. Five sequential 10-fold increasing concentrations of the sample solution (for the designs from 0.5 nM to 50 μM, and for rhG-CSF from 0.05 to 500 nM) were injected over the functionalized sensor chip surface for 180 s, followed by a 180 s dissociation with running buffer. At the end of each run, the sensor surface was regenerated with a 240 s injection of 10 mM glycine-HCl pH 2.0. Each experiment was performed two times for rhG-CSF, Boskar3, Boskar4, diSohair2, Moevan, and Moevan_t2. Association rate (ka), dissociation rate (kd), and equilibrium dissociation (Kd) constants were initially obtained by global fitting of the experimental reference-subtracted data to a 1:1 interaction model using the Biacore X100 evaluation software (v.2.0.1). To evaluate if a kinetics model that depends on double the analyte stoichiometry improves the goodness of fit to the data, the following rate integral was used: […]

[5] = target: T2, G-CSF Receptor (G-CSFR) (R&D systems …); experiment: SPR (Biacore), G-CSFR immobilised on the chip, Moevan_t2 2 nM - 32 nM as analyte, five traces with binding model fit [panel E]
[6] = target: T2, G-CSF Receptor (G-CSFR) (R&D systems …); experiment: SPR (Biacore), G-CSFR immobilised on the chip, diSohair2 250 nM - 4000 nM as analyte, five traces with binding model fit [panel B]

B1: sohair2_15r (designed binder)
chain: MTSDYIIEQIQRKQEEARLKVEEQERKLEAVKEASKRGVSSDQLLNLILDLADIITTLIQIIEESNEAIKELIKNQGGGGSGGGGSGGGGSDYIIEQIQRKQEEARLKVEEQERKLEAVKEASKRGVSSDQLLNLILDLADIITTLIQIIEESNEAIKELIKNQ
NFS-60 EC50 (ng/mL), proliferation of NFS-60 cells [1]: 228 ng/mL

B2: boskar4_15rl (designed binder)
chain: AALAAALAEIYKGLAEYQARLKSLEGISPELGPALDALRLDMADFATTMAQAMEGGGGSGGGGSGGGGSQSFLLKALEQIRKIQADAAALREKLAATYKGNDRAAAAVEIAAQLEAFLEKAYQILRHLAAA
NFS-60 EC50 (ng/mL), proliferation of NFS-60 cells [1]: 48.5 ng/mL

B3: boskar4_t2 (designed binder)
chain: AALAAALAEIYKGLAEYQARLKSLEGISPELGPALDALRLDMADFATTMAQAMEEGLDSLPQSFLLKALEQIRKIQADAAALREKLAATYKGNDRAAAAVEIAAQLEAFLEKAYQILRHLAAAGGGGSSGGGGSSGGGGSSGGGGSSAALAAALAEIYKGLAEYQARLKSLEGISPELGPALDALRLDMADFATTMAQAMEEGLDSLPQSFLLKALEQIRKIQADAAALREKLAATYKGNDRAAAAVEIAAQLEAFLEKAYQILRHLAAA
NFS-60 EC50 (ng/mL), proliferation of NFS-60 cells [1]: 4.2 ng/mL

B4: Moevan (designed binder)
chain: MEAAAAARDESAYLKLQEQMRKIDADAAALSETRTIEELDTFKLDVADFVTTVVQLAEELEHRFGRNRRGRTEIYKIVKEVDRKLLDLTDAVLAKEKKGEDILNMVAEIKALLINIYK
notes: also called Movean
NFS-60 EC50 (ng/mL), proliferation of NFS-60 cells [2]: 356 ng/mL | Kd [3]: 21.7 nM | koff [3]: 0.00599 s⁻¹ | kon [3]: 275000 M⁻¹ s⁻¹ | Kd [4]: 21 nM | koff [4]: 0.0059 s⁻¹ | kon [4]: 290000 M⁻¹ s⁻¹

B5: Moevan_t2 (designed binder)
chain: EAAAAARDESAYLKLQEQMRKIDADAAALSETRTIEELDTFKLDVADFVTTVVQLAEELEHRFGRNRRGRTEIYKIVKEVDRKLLDLTDAVLAKEKKGEDILNMVAEIKALLINIYKGGGGSSGGGGSSGGGGSSGGGGSSEAAAAARDESAYLKLQEQMRKIDADAAALSETRTIEELDTFKLDVADFVTTVVQLAEELEHRFGRNRRGRTEIYKIVKEVDRKLLDLTDAVLAKEKKGEDILNMVAEIKALLINIYK
notes: Tandem fusion of two Moevan copies joined by a 24 amino acid GS linker
Kd [5]: 1.2 nM | koff [5]: 0.00036 s⁻¹ | kon [5]: 300000 M⁻¹ s⁻¹ | NFS-60 EC50 (ng/mL), proliferation of NFS-60 cells [1]: 47.1 ng/mL | Kd [4]: 1.1 nM | koff [4]: 0.0003 s⁻¹ | kon [4]: 310000 M⁻¹ s⁻¹

B6: Sohair (designed binder)
chain: MTSDYIIEQIQRKQEEARLKVEEMERKLEAVKEASKRGVSSDQLLNLILDLADIITTLIQIIEESNEAIKELIKNQKGPTSDYIIEQIQRDQEEARKKVEEAEERLERVKEASKRGVSSDQLLDLIRELAEIIEELIRIIRRSNEAIKELIKNQ
NFS-60 EC50 (ng/mL), proliferation of NFS-60 cells [2]: 5050 ng/mL

B7: Disohair_1 (designed binder)
chain: MTSDYIIEQIQRKQEEARLKVEEMERKLEEVKEASKRGVSSDQLLNLILDLADIITTLIQIIEESNEAIKELIKNQ
NFS-60 EC50 (ng/mL), proliferation of NFS-60 cells [2]: 2380 ng/mL

B8: Disohair_2 (designed binder)
chain: B7 chain with M24Q, E30A
notes: Expressed with an N-terminal hexa-His-tag and thrombin site
NFS-60 EC50 (ng/mL), proliferation of NFS-60 cells [2]: 396 ng/mL | Kd [6]: 4550 nM | koff [6]: 0.00949 s⁻¹ | kon [6]: 2080 M⁻¹ s⁻¹ | Kd [4]: 4500 nM | koff [4]: 0.0095 s⁻¹ | kon [4]: 2100 M⁻¹ s⁻¹

B9: bika1 (designed binder)
chain: SKEVLEQSLFLKLDEQVRKLLADIHAIKIDRITGNMDKQKLDTAYLDVADIETTLYQLIEVSH
NFS-60 EC50 (ng/mL), proliferation of NFS-60 cells [1]: 63 ng/mL

B10: bika2 (designed binder)
chain: B9 chain with A44L
NFS-60 EC50 (ng/mL), proliferation of NFS-60 cells [1]: 98 ng/mL

B11: Boskar_1 (designed binder)
chain: AALAAELAEIYKGLAEYQARLQSLEGISPELGPALDALRLDVADFATTLAQAMEEKKTNLPQSFLLKALEQIRKIQADAAALREKLAATYTGTDRAAAAVEIAAQLEAFLEKAYEILRHLAAA
NFS-60 EC50 (ng/mL), proliferation of NFS-60 cells [2]: 2170 ng/mL

B12: moevan_st2 (designed binder)
chain: EAAAAARDESAYLKLQEQMRKIDADAAALSETRTIEELDTFKLDVADFVTTVVQLAEELEHRFGRNRRGRTEIYKIVKEVDRKLLDLTDAVLAKEKKGEDILNMVAEIKALLINIYKGGGGSSEAAAAARDESAYLKLQEQMRKIDADAAALSETRTIEELDTFKLDVADFVTTVVQLAEELEHRFGRNRRGRTEIYKIVKEVDRKLLDLTDAVLAKEKKGEDILNMVAEIKALLINIYK
NFS-60 EC50 (ng/mL), proliferation of NFS-60 cells [1]: 8.89 ng/mL

B13: boskar4_st2 (designed binder)
chain: AALAAALAEIYKGLAEYQARLKSLEGISPELGPALDALRLDMADFATTMAQAMEEGLDSLPQSFLLKALEQIRKIQADAAALREKLAATYKGNDRAAAAVEIAAQLEAFLEKAYQILRHLAAAGGGGSSAALAAALAEIYKGLAEYQARLKSLEGISPELGPALDALRLDMADFATTMAQAMEEGLDSLPQSFLLKALEQIRKIQADAAALREKLAATYKGNDRAAAAVEIAAQLEAFLEKAYQILRHLAAA
NFS-60 EC50 (ng/mL), proliferation of NFS-60 cells [1]: 0.202 ng/mL

B14: Boskar_2 (designed binder)
chain: AALAAELAEIMKGLQEYQARLKSLEGISPELGPALDALRLDMADFATTMAQMMEENPSDLPQSFLLKALEQIRKIQADAAALREKLAATYPNSQRAAAAVEIAAQLEAFLEKAYQILRHLAAA
NFS-60 EC50 (ng/mL), proliferation of NFS-60 cells [2]: 3220 ng/mL
